{"source": "paper PMC7117912", "about": "(2020)", "target": "H2-D^b (mouse MHC I heavy chain ectodomain) refolded with human β2-microglobulin (mouse | human)", "test": "FP", "note": "Ends that are not written are not given here."}
{"binder": "ASNC(TAMRA)NMETM", "note": "[ASNC*NMETM (fluorescently labeled high-affinity peptide for H2-D^b)]", "values": [{"measurement": "koff", "result": 0.00035, "unit": "s⁻¹"}]}
